The data set concerns the target apoE4 (UniProt P02649 19-317, C130R). Put plainly: EMSA. Background: Mobility shift assays separate free from complexed probe on a gel.

The source of these data is paper PMC6613789.

apoE4, sequence (P02649 19-317 C130R): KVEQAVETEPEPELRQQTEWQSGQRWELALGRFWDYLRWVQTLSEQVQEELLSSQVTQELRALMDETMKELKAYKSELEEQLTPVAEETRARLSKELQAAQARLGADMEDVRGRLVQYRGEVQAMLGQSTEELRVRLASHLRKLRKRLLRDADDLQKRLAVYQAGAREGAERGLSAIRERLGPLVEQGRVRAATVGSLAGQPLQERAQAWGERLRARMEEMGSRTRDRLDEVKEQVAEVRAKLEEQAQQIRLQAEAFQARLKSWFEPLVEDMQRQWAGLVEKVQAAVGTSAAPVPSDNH

B1: CLEAR EMSA probe (dsDNA)
DNA 1: GTAGGTCACGTGACCGGG
DNA 2: CCCGGTCACGTGACCTAC
Consider B1, for which the binding result was “binds”.
